Columns and labels:
RSV F antibody (11A9) = experiment: ELISA binding of RSV F antigen mutants, epitope II; conditions: for Binding amount to antibody/binding amount of PC-RSV-064 to antibody, Epitope II: antibody 11A9, relative to PC-RSV-064
Method: (§1) To investigate the binding of the RSV F antigen mutants to antibodies recognizing different epitopes, the binding amount was determined by an ELISA method in this example.
(§2) • 293T cells (purchased from ATCC cell bank); • Primary antibody: RSV pre-F antibody (3C12), epitope ([…] (Novoprotein, Cat. No.: DA101); • RSV pre-F antibody (7H11), epitope Quaternary (Novoprotein, Cat. No.: DA109); • RSV F antibody (11A9), epitope II (Novoprotein, Cat. No.: DA091); • RSV F antibody (4B9), epitope III (Novoprotein, Cat. No.: DA110); • RSV pre-F antibody (7E11), epitope V (Cat. No.: DA119); • Standard: RSV-pre-F trimer protein (Novoprotein, Cat. No.: DRA230); • Secondary antibody: peroxidase AffiniPure goat anti-human IgG (H+L) (Yeasen, Cat. No.: N/A); • Experimental group: mRNA vaccines after screening in Example 5;
(§3) Cell culture and transfection, and protein sample preparation: the experimental procedures were the same as in Example 3.
(§4) Detection of antigen expression by ELISA: the experimental procedures were the same as in Example 5.
(§5) In the present application, the binding of different mutant antigens to antibodies recognizing different epitopes was detected by ELISA, and the strength of the binding of the antigens to the antibodies was measured by the binding amount. (1) The RSV pre-F antibody (3C12) recognizing the epitope Φ binds only to the F protein in the pre-fusion conformation; (2) the RSV pre-F antibody (7H11) recognizes the epitope Quaternary (spanning both epitopes IV and V) and specifically binds to the F protein in the pre-fusion conformation; (3) the RSV F antibody (11A9) recognizing the epitope II can recognize both the pre-fusion and post-fusion conformations of the F protein; (4) the RSV F antibody […] recognizing the epitope III preferentially recognizes the pre-fusion conformation and has relatively weak binding activity for the post-fusion conformation; (5) the RSV pre-F antibody (7E11) recognizing the epitope V binds only to the F protein in the pre-fusion conformation.

[1] = system: RSV pre-F antibody (3C12); type: physicochemical; conditions: for stability under the stress tests (in words): all stress tests, binding to 3C12, ELISA; for Stress resistance parameter, Osmotic pressure (mM) 3000: high osmotic pressure 3000 mM; for Stress resistance parameter, Osmotic pressure (mM) 3000 / Stress resistance parameter, Osmotic pressure (mM) 10: room temperature; for Stress resistance parameter, Osmotic pressure (mM) 3000 / Stress resistance parameter, Osmotic pressure (mM) 10 / Stress resistance parameter, pH 3.5 / Stress resistance parameter, pH 10: 60 min; for Stress resistance parameter, Osmotic pressure (mM) 3000 / Stress resistance parameter, Temperature (° C.) 50 / Stress resistance parameter, Osmotic pressure (mM) 10 / Stress resistance parameter, pH 3.5 / Stress resistance parameter, pH 10 / Stress resistance parameter, Temperature (° C.) 4: ELISA binding to 3C12; for Stress resistance parameter, Temperature (° C.) 50: incubation at 50° C. for 60 min; for Stress resistance parameter, Osmotic pressure (mM) 10: low osmotic pressure 10 mM; for Stress resistance parameter, pH 3.5: pH 3.5, room temperature; for Stress resistance parameter, pH 10: pH 10, room temperature; for Stress resistance parameter, Temperature (° C.) 4: storage at 4° C. for one week
In short: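 RSV F mRNA-vaccine mutants stress-treated: 4° C. for one week, 50° C. for 60 min, low or high osmotic pressure at room temperature for 60 min, acid or base at room temperature for 60 min. Binding to 3C12 (epitope Φ) then measured by ELISA against pre-F trimer standard, HRP anti-human IgG, OD 450/630 nm.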

[2] = system: RSV pre-F antibody (3C12); experiment: ELISA binding of RSV F antigen mutants, epitope Φ; conditions: for Binding amount to antibody/binding amount of PC-RSV-064 to antibody, Epitope Φ: antibody 3C12, relative to PC-RSV-064
Method: as §1, §2, §3, §4, §5

[3] = system: RSV pre-F antibody (7H11); experiment: ELISA binding of RSV F antigen mutants, epitope Quaternary; conditions: for Binding amount to antibody/binding amount of PC-RSV-064 to antibody, Epitope Quaternary: antibody 7H11, relative to PC-RSV-064
Method: as §1, §2, §3, §4, §5

Row | Molecule | ELISA binding amount, Epitope II, RSV F antibody (11A9) (RSV F antibody (11A9)) [ng/mL] | Binding amount to antibody/binding amount of PC-RSV-064 to antibody, Epitope II (RSV F antibody (11A9)) | stability under the stress tests (in words) [1] | Stress resistance parameter, Osmotic pressure (mM) 3000 [1] | Stress resistance parameter, Temperature (° C.) 50 [1] | Stress resistance parameter, Osmotic pressure (mM) 10 [1] | Stress resistance parameter, pH 3.5 [1] | Stress resistance parameter, pH 10 [1] | Stress resistance parameter, Temperature (° C.) 4 [1] | ELISA binding amount, Epitope Φ, RSV pre-F antibody (3C12) [2] [ng/mL] | Binding amount to antibody/binding amount of PC-RSV-064 to antibody, Epitope Φ [2] | ELISA binding amount, Epitope Quaternary, RSV pre-F antibody (7H11) [3] [ng/mL] | Binding amount to antibody/binding amount of PC-RSV-064 to antibody, Epitope Quaternary [3] | binding of epitope Φ, epitope Quaternary and epitope V to the corresponding antibodies (in words) ([2]; ELISA, antibodies 3C12, 7H11, 7E11)
1 | YK-RSV-009 (protein) QNITEEFYCSTCSAVSKGYLGALRTGWYTSVILIELSNIKENKCNGTDAKVKLIKQELDKYKNAVTDLQLLMQSTPATGSGSAIASGVAVSKVLHLEGEVNKIKSALLSTNKAVVSLSNGVSVLTFKVLDLKNYIDKQLLPIVNKQSCSIPNIETVIEFQQKNNRLLEITREFSVNAGVTTPVSTYMLTNSELLSLINDMPITNDQKKLMSNNVQIVRQQSYSIMSIIKEEVLAYVVQLPLYGVIDTPCWKLHTSPLCTTNTKEGSNICLTRTDRGWYCDNAGSVSFFPQAETCKVQSNRVFCDTMNSRTLPSEVNLCNVDIFNPKYDCKIMTSKTDVSSSVITSLGAIVSCYGKTKCTASNKNRGIIKTFSNGCDYVSNKGVDTVSVGNTLYYVNKQEGQSLYVKCEPIINFYDPLVFPSSEFDASISQVNEKINQSLAFIRKSDELLHNVNAGKSTTNIMITTIIIVIIVILLSLIAVGLLLY | 203 | 0.10 | superior stability | 0.69 ± 0.15 | 0.84 ± 0.04 | 0.78 ± 0.15 | 0.60 ± 0.14 | 0.91 ± 0.04 | 0.71 ± 0.11 | 521 | 0.19 | 29 | 0.01 | –
2 | YK-RSV-010 (protein) QNITEEFYQSTCSAVSKGYLGALRTGWYTCVILIELSNIKENKCNGTDAKVKLIKQELDKYKNAVTDLQLLMQSTPATGSGSAIASGVAVSKVLHLEGEVNKIKSALLSTNKAVVSLSNGVSVCTFKVLDLKNYIDKQLLPIVNKQSCSIPNIETVIEFQQKNNRLLEITREFSVNAGVTTPVSTYMLTNSELLSLINDMPITNDQKKLMSNNVQIVRQQSYSIMSIIKEEVLAYVVQLPLYGVIDTPCWKLHTSPLCTTNTKEGSNICLTRTDRGWYCDNAGSVSFFPQAETCKVQSNRVFCDTMNSRTLPSEVNLCNVDIFNPKYDCKIMTSKTDVSSSVITSLGAIVSCYGKTKCTASNKNRGIIKTFSNGCDYVSNKGVDTVSVGNTLYYVNKQEGQSLYVKGEPIINFYDPLVFPSSEFDASISQVNEKINQSLAFIRKSDELLHNVNAGKSTTNIMITTIIIVIIVILLSLIAVGLLLY | 336 | 0.16 | superior stability | 0.84 ± 0.11 | 1.04 ± 0.09 | 0.97 ± 0.07 | 0.82 ± 0.05 | 0.93 ± 0.05 | 0.86 ± 0.08 | 838 | 0.30 | 39 | 0.01 | –
3 | YK-RSV-043 (protein) QNITEEFYQSTCSAVSKGYLGALRTGWYTSVITIELSNIKENKCNGTDAKVKLIKQELDKYKNAVTDLQLLMQSCPATGSGSAIACGVAVSKVLHLEGEVNKIKSALLSTNKAVVSLSNGVSVLTFKVLDLKNYIDKQLLPILNKQSCSIPNIETVIEFQQKNNRLLEITREFSVNAGVTTPVSTYMLTNSELLSLINDMPITNDQKKLMSNNVQIVRQQSYSIMSIIKEEVLAYVVQLPLYGVIDTPCWKLHTSPLCTTNTKEGSNICLTRTDRGWYCDNAGSVSFFPQAETCKVQSNRVFCDTMNSRTLPSEVNLCNVDIFNPKYDCKIMTSKTDVSSSVITSLGAIVSCYGKTKCTASNKNRGIIKTFSNGCDYVSNKGVDTVSVGNTLYYVNKQEGQSLYVKGEPIINFYDPLVFPSDEFDASISQVNEKINQSLAFIRKSDELLHNVNAGKSTTNIMITTIIIVIIVILLSLIAVGLLLY | 4610 | 2.20 | superior stability | 0.72 ± 0.09 | 0.66 ± 0.06 | 0.84 ± 0.18 | 0.90 ± 0.13 | 0.75 ± 0.28 | 0.70 ± 0.13 | 9445 | 3.41 | 922 | 0.26 | –
4 | YK-RSV-048 (protein) QNITEEFYQSTCSAVSKGYLGALRTGWYTSVITIELSNIKENKCNGTDAKVKLIKQELDKYKNAVTDLQLLMQSTPATGSGSFLGFLCGVGSAIASGVAVSKVLHLEGEVNKIKSALLSTNKAVVSLSNGVSVLTFKVLDLKNYIDKQLLPILNKQSCSIPNIETVIEFQQKNNRLLEITREFSVNAGVTTPVSTYMLTNSELLSLINDMPITNDQKKLMSNNVQIVRQQSYSIMSIIKEEVLAYVVQLPLYGVIDTPCWKLHTSPLCTTNTKEGSNICLTRTDRGWYCDNAGSVSFFPQAETCKVQSNRVFCDTMCSRTLPSEVNLCNVDIFNPKYDCKIMTSKTDVSSSVITSLGAIVSCYGKTKCTASNKNRGIIKTFSNGCDYVSNKGVDTVSVGNTLYYVNKQEGQSLYVKGEPIINFYDPLVFPSDEFDASISQVNEKINQSLAFIRKSDELLHNVNAGKSTTNIMITTIIIVIIVILLSLIAVGLLLY | 2255 | 1.07 | superior stability | 0.61 ± 0.17 | 0.70 ± 0.07 | 0.75 ± 0.00 | 0.61 ± 0.07 | 1.13 ± 0.19 | 0.46 ± 0.08 | 3306 | 1.19 | 2873 | 0.80 | able to well bind

Source: patent US12514920B1, “Respiratory syncytial virus mRNA vaccine, and preparation method therefor and use thereof” (Hangzhou Tianlong Pharmaceutical Co., Ltd., priority 2024, dated 2026)
